Source: patent US20230357429A1 (JANUX THERAPEUTICS, published 2023)
Substitutions are numbered along the chain they refer to. In names and notes the source's numbering stands. Where two headings read alike, the source gives them in different places. Where no end group is shown, it is not given here.

Key:
Cyno TROP2 Full length = target: T1, Cyno TROP2 Full length (cynomolgus monkey, UniProt P09758 31-323 (human entry)); experiment: cell-based or functional assay
T1 chain: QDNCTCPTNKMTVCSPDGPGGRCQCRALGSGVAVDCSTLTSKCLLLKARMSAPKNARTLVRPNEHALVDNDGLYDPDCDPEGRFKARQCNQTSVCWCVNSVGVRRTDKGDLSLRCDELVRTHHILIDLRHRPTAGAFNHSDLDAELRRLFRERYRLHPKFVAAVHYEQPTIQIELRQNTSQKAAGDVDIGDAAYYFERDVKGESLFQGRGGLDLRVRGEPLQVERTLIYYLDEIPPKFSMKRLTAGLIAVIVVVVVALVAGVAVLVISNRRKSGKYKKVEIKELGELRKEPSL

Human TROP2 Full length = target: T2, Human TROP2 Full length (human, UniProt P09758 31-323); experiment: cell-based or functional assay
T2 sequence: T1 chain with V32M, N63S, V200I, V262M, S268T

[1] = target: T3, Human TROP2 ECD (31-274 AA), biotinylated (human, UniProt P09758 31-274, biotinylated (site not stated)); experiment: ELISA on immobilized TROP2
T3 construct: also called tumor-associated calcium signal transducer 2; Human TROP2-biotin
T3 sequence: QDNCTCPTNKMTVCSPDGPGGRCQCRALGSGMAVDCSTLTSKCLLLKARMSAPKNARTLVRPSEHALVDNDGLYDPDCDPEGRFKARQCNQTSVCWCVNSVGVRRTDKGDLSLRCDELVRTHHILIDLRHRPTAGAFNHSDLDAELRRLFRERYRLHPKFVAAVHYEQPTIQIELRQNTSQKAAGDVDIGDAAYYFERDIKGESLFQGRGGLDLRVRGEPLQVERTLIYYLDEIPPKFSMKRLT

[2] = target: T3, Human TROP2 ECD (31-274 AA), …; experiment: ELISA on immobilized TROP2; remark: listed apart in the source
[3] = target: T3, Human TROP2 ECD (31-274 AA), …; experiment: ELISA on immobilized TROP2; remark: listed apart in the source
[4] = target: T3, Human TROP2 ECD (31-274 AA), …; experiment: ELISA on immobilized TROP2; remark: listed apart in the source
[5] = target: T3, Human TROP2 ECD (31-274 AA), …; experiment: ELISA on immobilized TROP2; remark: listed apart in the source
Peptide-68 = target: T4, Peptide-68 (cysteine pairing not given here; also: biotinylated, site not given here); experiment: ELISA, TCE on captured biotin-peptide
T4 construct: mask peptide for the CD3 scFv
T4 peptide: DWCWYSPDNDGLCD

Peptide-71 = target: T5, Peptide-71 (cysteine pairing not given here; also: biotinylated, site not given here); experiment: ELISA, TCE on captured biotin-peptide
T5 construct: mask peptide for the CD3 scFv
T5 peptide: VDCGPDGDESILCY

Peptide-69 = target: T6, Peptide-69 (cysteine pairing not given here; also: biotinylated, site not given here); experiment: ELISA, TCE on captured biotin-peptide
T6 construct: mask peptide for the CD3 scFv
T6 peptide: SECLVDLQSDPCYW

Peptide-70 = target: T7, Peptide-70 (cysteine pairing not given here; also: biotinylated, site not given here); experiment: ELISA, TCE on captured biotin-peptide
T7 construct: mask peptide for the CD3 scFv
T7 peptide: YLCGPDGDETLACY

B1: TCE-7 (bispecific antibody)
light: DIQLTQSPSSLSASVGDRVSITCKASQDVSIAVAWYQQKPGKAPKLLIYSASYRYTGVPDRFSGSGSGTDFTLTISSLQPEDFAVYYCQQHYITPLTFGAGTKVEIKRTVAAPSVFIFPPSDEQLKSGTASVVCLLNNFYPREAKVQWKVDNALQSGNSQESVTEQDSKDSTYSLSSTLTLSKADYEKHKVYACEVTHQGLSSPVTKSFNRGEC
heavy: not shown
Cyno TROP2 Full length
  CyTROP2 HEK293 EC50 (pM): 0.11 pM
Human TROP2 Full length
  HCT116 Cytotoxicity EC50 (pM): 113 pM

B2: TCE-38 (bispecific antibody)
light: B1 light
heavy: not shown
Cyno TROP2 Full length
  CyTROP2 HEK293 EC50 (pM): 3.6 pM
Human TROP2 Full length
  HCT116 Cytotoxicity EC50 (pM): > 3000 pM

B3: TCE-48 (bispecific antibody)
light: B1 light
heavy: not shown
Cyno TROP2 Full length
  CyTROP2 HEK293 EC50 (pM): 0.8 pM
Human TROP2 Full length
  H292 Cytotoxicity EC50 (pM): 7.2 pM

B4: PC-17 (bispecific antibody)
light: not shown
heavy: GGIDFCAIYQWPVCRSGGGGSGGLSGRSDAGSPLGLAGSGGSQVQLQQSGSELKKPGASVKVSCKASGYTFTNYGMNWVKQAPGQGLKWMGWINTYTGEPTYTDDFKGRFAFSLDTSVSTAYLQISSLKADDTAVYFCARGGFGSSYWYFAVWGQGSLVTVSSASTKGPSVFPLAPSSKSTSGGTAALGCLVKDYFPEPVTVSWNSGALTSGVHTFPAVLQSSGLYSLSSVVTVPSSSLGTQTYICNVNHKPSNTKVDKKVEPKSC
notes: anti-TROP2 D109A
[1]
  EC50: 926 nM

B5: PC-21 (bispecific antibody)
light: not shown
heavy: B4 heavy with I3V, I8L, Q10H, V13I, R15Y, S16Q
notes: anti-TROP2 D109A
[2]
  EC50: 168 nM

B6: PC-27 (bispecific antibody)
light: not shown
heavy: B4 heavy with I3V, Q10S, V13I, R15K, S16I
notes: anti-TROP2 D109A
[2]
  EC50: 214 nM

B7: TCE-1 (TROP2 T cell engager, anti-CD3 scFv wt, anti-TROP2 wt) (bispecific antibody)
light: B1 light
heavy: not shown
notes: Anti-CD3 scFv joined to the N-terminus of the anti-TROP2 Fab heavy chain; the heavy entry holds scFv, linker and Fab heavy chain; also called TCE-1 (wt)
[3]
  EC50: 0.07 nM
[4]
  EC50: 0.06 nM
[1]
  EC50: 1.29 nM

B8: TCE-5 (bispecific antibody)
light: not shown
heavy: QVQLQQSGSELKKPGASVKVSCKASGYTFTNYGMNWVKQAPGQGLKWMGWINTYTGEPTYTDDFKGRFAFSLDTSVSTAYLQISSLKADDTAVYFCARGGFGSSYWYFAVWGQGSLVTVSSASTKGPSVFPLAPSSKSTSGGTAALGCLVKDYFPEPVTVSWNSGALTSGVHTFPAVLQSSGLYSLSSVVTVPSSSLGTQTYICNVNHKPSNTKVDKKVEPKSC
[2]
  EC50: 0.59 nM
[5]
  EC50: 1.43 nM
[1]
  EC50: 20.9 nM

B9: TCE-34 (anti-CD3 scFv P41S, A49G, N87S, L150F, T151S, G163R, P175A, K181T, T200V, A202D, L208I, G211N, L217I, S218T, V220A, P222A, E223D, A226S, E227D; … (bispecific antibody)
light: B1 light
heavy: EVQLVESGGGLVQPGGSLKLSCAASGFTFNKYAMNWVRQASGKGLEWVGRIRSKYNNYATYYADSVKDRFTISRDDSKNTAYLQMNSLKTEDTAVYYCVRHGNFGNSYISYWAYWGQGTLVTVSSGGGGSGGGGSGGGGSQTVVTQEPSFSVSPGGTVTLTCRSSTGAVTSGNYANWVQQTPGQAPRGLIGGTKFLAPGVPDRFSGSILGNKAALTITGAQADDESDYYCVLWYSNRWVFGGGTKLTVLGGGGSQVQLQQSGSELKKPGASVKVSCKASGYTFTNYGMNWVKQAPGQGLKWMGWINTYTGEPTYTDDFKGRFAFSLDTSVSTAYLQISSLKADDTAVYFCARGGFGSSYWYFDVWGQGSLVTVSSASTKGPSVFPLAPSSKSTSGGTAALGCLVKDYFPEPVTVSWNSGALTSGVHTFPAVLQSSGLYSLSSVVTVPSSSLGTQTYICNVNHKPSNTKVDKKVEPKSC
notes: scFv on the Fab heavy chain
Peptide-68
  EC50: 0.41 nM
Peptide-71
  EC50: 0.32 nM
Peptide-69
  EC50: 0.31 nM
Peptide-70
  EC50: 0.29 nM
